For two molecules, binding result and Kd results are on record in article PMC4903074 (Molecular cell, 2015).

The target in experiment [1] is T1, GST-RPN10 (residues 201–386), wild type (Arabidopsis thaliana, UniProt P55034 201-386).
T1 sequence (looked up): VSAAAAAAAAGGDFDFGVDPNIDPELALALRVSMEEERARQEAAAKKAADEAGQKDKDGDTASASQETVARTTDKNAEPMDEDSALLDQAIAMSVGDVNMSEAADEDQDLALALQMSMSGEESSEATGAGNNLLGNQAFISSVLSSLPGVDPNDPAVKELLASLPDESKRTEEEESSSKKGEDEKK
In words: pull-down.

In experiment [2] the target is T1, GST-RPN10 (residues 201–386), wild type. In words: pull-down. This is another data set of the same source.

B1: His6-ATG8f (natural protein, Arabidopsis thaliana, UniProt Q8VYK7 1-117, looked up)
chain: MAKSSFKQEHDLEKRRAEAARIREKYPDRIPVIVEKAEKSDIPTIDKKKYLVPADLTVGQFVYVIRKRIKLSAEKAIFIFVDNVLPPAGALMSSVYEEKKDDDGFLYVTYSGENTFG
As to B1, the binding result in experiment [1] is “binds”.

B2: His6-ATG8e (natural protein, Arabidopsis thaliana, UniProt Q8S926 1-118, looked up)
chain: MNKGSIFKMDNDFEKRKAEAGRIREKYPDRIPVIVEKAEKSEVPNIDKKKYLVPSDLTVGQFVYVIRKRIKLSAEKAIFIFVDNVLPPTGELMSSVYEDKKDEDGFLYITYSGENTFG
For B2, the Kd in experiment [2] is ~5.6 µM.

As usually defined, the Kd is the free concentration of one partner at which half of the binding sites on the other are occupied at equilibrium, for simple one-to-one binding.
